Reference: patent US20210040204A1 (INSERM INSTITUT NATIONAL DE LA SANT ET DE LA RECHERCHE M …, published 2021)
Substitutions are numbered along the chain they refer to.

T1: human Claudin-1 (human, UniProt O95832 1-211)
T1 construct: whole, on cells; also called CLDN1; human CLDN1
T1 sequence (looked up): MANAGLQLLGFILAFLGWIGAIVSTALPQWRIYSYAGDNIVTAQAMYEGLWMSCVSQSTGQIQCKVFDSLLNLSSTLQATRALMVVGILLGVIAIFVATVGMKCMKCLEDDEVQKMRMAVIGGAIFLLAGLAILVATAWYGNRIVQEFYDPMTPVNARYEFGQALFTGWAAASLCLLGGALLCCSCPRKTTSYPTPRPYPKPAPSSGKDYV

B1: humanized anti-CLDN1 mAb H2L1 (antibody, V domains shown)
VH: QVQLVESGGGVVQPGRSLRLSCAASGFSFSSYGMNWVRQAPGKGLEWVTSISPSGSYFYYADSVKGRFTISRDNSKNTLYLQMNSLRAEDTAIYYCARLPGFNPPFDHWGQGTLVTVSS
VL: DIQMTQSPATLSVSPGERATLSCKASQNVGGNVDWYQWKPGQAPRLLIYGASNRYTGIPARFRGSGSGTEFTLTISSLQSEDFAVYYCLQYKNNPWTFGQGTKVEIK
notes: Full-length antibody made in CHO cells; variable domains fused to the constant domains of human IgG4 heavy and human kappa light chains
B2: humanized anti-CLDN1 mAb H1L1 (antibody, V domains shown)
VH: B1 VH with Q1E, V11L, Q13K, R16G, T49S, S75A, T78S, I93V
VL: B1 VL
notes: as for B1
B3: humanized anti-CLDN1 mAb H3L1 (antibody, V domains shown)
VH: B1 VH with A23L, A24G, T49A, N84T
VL: B1 VL
notes: as for B1
B4: humanized anti-CLDN1 mAb H2L2 (antibody, V domains shown)
VH: B1 VH
VL: DIQMTQSPSSLSASVGDRVTITCKASQNVGGNVDWYQWKPGKAPKLLIYGASNRYTGVPSRFRGSGSGTDFTLTISSLQPEDVATYYCLQYKNNPWTFGQGTKVEIK
notes: as for B1
B5: humanized anti-CLDN1 mAb H1L2 (antibody, V domains shown)
VH: B1 VH with Q1E, V11L, Q13K, R16G, T49S, S75A, T78S, I93V
VL: B4 VL
notes: as for B1
B6: humanized anti-CLDN1 mAb H1L3 (antibody, V domains shown)
VH: B1 VH with Q1E, V11L, Q13K, R16G, T49S, S75A, T78S, I93V
VL: B4 VL with S60D, Q100G
notes: as for B1
B7: humanized anti-CLDN1 mAb H2L3 (antibody, V domains shown)
VH: B1 VH
VL: B4 VL with S60D, Q100G
notes: as for B1
B8: humanized anti-CLDN1 mAb H3L2 (antibody, V domains shown)
VH: B1 VH with A23L, A24G, T49A, N84T
VL: B4 VL
notes: as for B1
B9: humanized anti-CLDN1 mAb H3L3 (antibody, V domains shown)
VH: B1 VH with A23L, A24G, T49A, N84T
VL: B4 VL with S60D, Q100G
notes: Full-length antibody made in CHO cells; variable domains fused to the constant domains of human IgG4 heavy and human kappa light chains; also called humanized anti-CLDN1 antibody clone H3L3; humanized CLDN1 mAb (H3L3)
B10: rat anti-CLDN1 mAb OM-7D3-B3 (antibody, V domains shown)
VH: EVQLVESGGGLVQPGRSLKLSCLGSGFSFSSYGMNWIRQAPGKGLEWVASISPSGSYFYYADSVKGRFTISRENAKNTLYLQMTSLRAEDTALYYCARLPGFNPPFDHWGQGVVVTVSS
VL: NTVMTQSPTSMFMSVGDRVTMNCKASQNVGGNVDWYQWKPGQSPKLLMYGASNRYTGVPDRFRGSGSGTDFTLTISNMQTEDLAVYYCLQYKNNPWTFGGGTKVELK
notes: Hybridoma antibody, rat IgG2b with rat kappa light chain; also called rat OM-7D3-B3; parental rat antibody
B11: recombinant full-length IgG2b (parent isotype) antibody with the VH and VL of rat OM-7D3-B3 (antibody, V domains shown)
VH: B10 VH
VL: B10 VL
notes: IgG2b as the parent; also called recombinant full-length IgG2b antibody

Experiments:
[1] = target: T1, human Claudin-1; experiment: flow cytometry on Huh7.5.1 and HepG2 cells with surface CLDN1 (FIG. 2A)
Protocol: (§1) FIG. 2. […] (A) Flow cytometry analysis of the binding of humanized OM-7D3-B3 anti-CLDN1 mAbs (20 μg/mL) to cell lines. […] Binding is expressed as delta median fluorescence intensity (ΔMFI). […] After 48 h, cells were stained with isotype control, rat OM-7D3-B3 or humanized H3L3 antibody (20 μg/mL). The ΔMFI from one experiment performed in duplicate are shown. […] Huh 7.5.1 cells were incubated with different mAbs (25 μg/mL) at 37° C. for 1 h prior to infection with HCVcc. Infectivity was assessed after 72 h by measuring luciferase activity and is expressed as log relative luciferase units (RLU). (D) Humanized anti-CLDN1 mAbs inhibit entry of HCVpp bearing envelope glycoproteins of strains H77 (genotype 1a) and HCV-J (genotype 1b). PHH were pre-treated with the humanized antibodies (20 μg/mL) for 1 h at 37° C. prior to infection with HCVpp. Infectivity was measured by luciferase activity after 72 h and is expressed as RLU. Graphs show results from one experiment performed in duplicate (A, B, D) or in triplicate (C).
(§2) Flow cytometry. […] Cells were washed and incubated with phycoerythrin (PE)-conjugated species-specific secondary antibodies at 4° C. for 45 min to allow detection of binding. Cells were subsequently washed and fixed with 2% paraformaldehyde (PFA) prior to analysis by flow cytometry using a BD LSRII flow cytometer. Net delta median fluorescence intensities (ΔMFI) were obtained after subtracting the background fluorescence with PBS. […] After 48 h, binding of antibodies was assessed as described above.

[2] = target: T1, human Claudin-1; experiment: flow cytometry, 20 µg/mL, Huh7.5.1 and HepG2 cells (FIG. 2A)
Protocol: as §1
as §2, with “Cells were subsequently washed and fixed with 2% paraformaldehyde (PFA) prior to analysis by flow cytometry using a BD LSRII flow cytometer.” left out

[3] = target: T1, human Claudin-1; experiment: flow cytometry, 20 µg/mL, 293T cells transfected with CLDN1-expressing pcDNA3.1 (FIG. 2B)
Protocol: as §1
as §2, with “Cells were subsequently washed and fixed with 2% paraformaldehyde (PFA) prior to analysis by flow cytometry using a BD LSRII flow cytometer.” left out

[4] = target: T1, human Claudin-1; experiment: not described (data not shown)

Binder | binding result [1] | also measured
B1 | binds | 
B2 |  | binding result [2]: binds
B3 | binds | 
B4 | binds | 
B5 | binds | 
B6 | binds | 
B7 | binds | 
B8 | binds | 
B9 |  | binding result [3]: binds
B10 | binds | 
B11 |  | binding result [4]: binds
